Measurements taken from the DeepSol protein solubility set.

Experiment: soluble on expression in E. coli; label from the status in PepcDB or PDB records

Row | Sequence | soluble on expression in E. coli
1 | AHHHHHHGSYEVTKFGGEGKRLEDYREIIGDEALEAIKAKAENLKDKSFVHVNSTSFGGGVAEILHNLVPLMRDVGIDARWFVIEGTNEFFNVTKSFHNALQGNKELRLTEEMKKLYLEINKKNAEDIDLTQFDYVLIHDPQPAPLIEFYEKRQPWIWRCHIDLSDPNLEFWKFLRQFVEKYDRYIFHMEEYVQEDLNQEKVVIMPPSIDPLSEKNMELSESEILKTLERFDVDPERPIITQVARFDPWKGVFDVIDVYRKVKEKIPEVQLLLVGVMAHDDPEGWIYFEKTLRKIGEDYDIKVLTNLTGVHAREVNAFQRASDVILQMSIREGFGLTVTEAMWKEKPVVGRAVGGIKLQIVDGKTGFLVKDVNDAIEKTLYLLEHKDVAQEMGKNAKERIKENFIITKHLERYLDLLNSF | soluble
2 | AHKLFIGGLPNYLNDDQVKELLTSFGPLKAFNLVKDSATGLSKGYAFCEYVDINVTDQAIAGLNGMQLGDKKLLVQRASVGAKNA | soluble
3 | AIAAHVRTYNPRVRVGNWKEDVTLEEETSKEFILQKDRGELTVQKEGALKQSILKPVSLSVSQDGFLHFGDTVMLVNCGDGGHMQRSPCVLSIIADSSNVTSHSQTNTGPHLLGPLQVGGAHSMDPCVRNTFIIISVDGSSDGEVVRYDQSFALKTTGGFAGELFLASDHKSFQKCAKKSRLQELSLVEEFDFLCWWKVLYFDPQDRLENEGYPVQVNNKVLISHCKTNQCLAALSNHILWSQFGKEYELTAHTFLDSHKAEQDNNHWLFSTAHPANQSQSLLQLQQEEHKENQEDTQVKDCS | soluble
4 | AIAAHVSSETQDVSPKDELTASEASTRSPLCEHTFPGDSDLRSMIEEHAFQVLSQGSLLESPSYTVCVSEPDKDDDFLSLNFPRKLWKIVESDQFKSISWDENGTCIVINEELFKKEILETKAPYRIFQTDAIKSFVRQLNLYGFSKIQQNFQRSAFLATFLSEEKESSVLSKLHVFVFHHSLFGATFGEHHFQPCPLPSGNKAPISTWSGDSWLL | soluble
5 | AIAARRNYQVERNKLEEKDPTWLMQKGQIQPLVSSLVVLNVEGERILARYTAKELFPTFDVEKKFEADLLKKSQTIPDLEERVFEHGQHIVVCRASEDLLFFVTSRIYENEVILSEVLTCWVDSLVKVLKNLPLNELNLLQHYEVLLLLVDELVDQEGVIMETDANELSSRTEFAMYSTDPRDLIPELTEQGFSHALQTAKQHLARTILK | soluble
6 | AIAFILSAQRLSGTQVFRRLAEGCTGYSVSSGCRQRRRCCPGAPQRPRRVRVNALQLQSGLADPLDPKSEAEVREHLRSNSPAERALGINYARYLDESTRYDILLEMMEDTDPQVRYAAVTQLATVGSHDRQRTLKAVRKILWNTEEDASVRAGALTCWAVSGSTRPSQTWKSSSTSRRTGWCGSASSLL | soluble
7 | AIALRADKPKCSIQNFFIPALGKDPNSRDNTTLNFMVRCDNPNKDKGIYYDDVHLNFSTINTTKINSSALVLVGNYTVPKFYQGHKKKAKKWGQVKPLNNQTVLRAVLPNGSAVFRLDLKTQVRFKIVFWKTKRYGVEVGADVEVNGDGVKAQKKGIKMKKS | soluble
8 | AIARNDLFNREKSRQLSLTPRTEKIEVKHVGKTDPGTVFVMNKNISTPYSCAMHLSEWYCSKSILALVDGQPWDMYKPLTKSCEIKFLTFKDPDPREVNKAYWRSCAMMLGCVIERAFKDDYVVSLLRAPEVPVIAGAFCYDVTLDKRLDEWMPTKENLRSFTKDAHALIYRDLPFETLDVDARVALEIFQHNKYKVDFIEEKASQNPERIVKLHRIGDFIDVSEGPLIPRTSVCFQYEVSAVHNLNPSQPNLIRRFQGLSLPTHLRAQFTIWDKLVGRSRKMVTEDEVRQTENTESTQ | not soluble
9 | AIASFITNPSIFSGLKLSNAQRKVKSDLECIRKSKLFQRKRIVPERRRLGLVACGTEEDRTHQRSQWGGEDSDYFGRDPRKETEFWMEHAKEVLESKEVADAVEAHKKSGSSNLTEEQKAWLEFARSITPKPEDEE | soluble
10 | AIASRAASLRAELTSLANAFEEERISSAERLDADLVRQAVEQAKPENLEQWKQVVHDATAKLQQFWEDSEQALIRETYALATSYLRESDDEVHRLQMTKKALEEQLETERRRSTRIEEQLAALQSRLLDSAAPAATTPADDARTQQEVLRSELQGFMQELVRNQRESLRVLQEELQRVREEASVREENLLRQIAHLKTELAVARTDNEVSSRQLRQLETSAGREEVQDELGPGTIWPPHLTPRRGHRRFQRHNRLEDAPAPPEF | soluble
11 | AIAVEVESDSVAERDRSSFLAGHDAIRLAKSCVDSPPERWYAALYQVYADLTKLRCWSNVEVVYSDSATFPTGLLGPLFEEDSMVQELHSAQCILGSERACFHVRCCIVGSPPSGRAINALSPQSETRTEERIITSRREPEVVIAVPMHAMLKLSNLDQALRMSSHIEGIVKNRHVADSSASTHSTDRQAGSRKSSVIFGFVDEDTTTAYYRIREGACESNDRREFSTDDIASCLAQERT | soluble
12 | AIETETLVVGAGPGGYVAAIRAAQLGQKVTIVEKGNLGGVCLNVGCIPSKALISASHRYEQAKHSEEMGIKAENVTIDFAKVQEWKASVVKKLTGGVEGLLKGNKVEIVKGEAYFVDANTVRVVNGDSAQTYTFKNAIIATGSRPIELPNFKFSNRILDSTGALNLGEVPKSLVVIGGGYIGIELGTAYANFGTKVTILEGAGEILSGFEKQMAAIIKKRLKKKGVEVVTNALAKGAEEREDGVTVTYEANGETKTIDADYVLVTVGRRPNTDELGLEQIGIKMTNRGLIEVDQQCRTSVPNIFAIGDIVPGPALAHKASYEGKVAAEAIAGHPSAVDYVAIPAVVFSDPECASVGYFEQQAKDEGIDVIAAKFPFAANGRALALNDTDGFLKLVVRKEDGVIIGAQIIGPNASDMIAELGLAIEAGMTAEDIALTIHAHPTLGEIAMEAAEVAL | soluble
13 | AIFGGDGFKDWIGEFSLFKELNEATEMFGKEDEEGTAATETEKADESTDGGMVKHDTNKAESLKKDKLSKEQREKLMEMEKKRREDMMKQVDELAEKLNEKISRYLIAVKSNNLEEFTRKLDQEIEDLKLESFGLELLYLLARVYKTKANNFIMSKKTYGISKIFTGTRDNARSVKSAYNLLSTGLEAQKAMEKMSEVNTDELDQYERAKFESTMAGKALGVMWAMSKFELERKLKDVCNKILNDKKVPSKERIAKAKAMLFIAHKFASARRSPEEAEEARVFEELILGEQEKEHKKHTVAR | not soluble
14 | AIPAPTDLKFTQVTPTSLSAQWTPPNVQLTGYRVRVTPKEKTGPMKEINLAPDSSSVVVSGLMVATKYEVSVYALKDTLTSRPAQGVVTTLENVSPPRRARVTDATETTITISWRTKTETITGFQVDAVPANGQTPIQRTIKPDVRSYTITGLQPGTDYKIYLYTLNDNARSSPVVIDASTAIDAPSNLRFLATTPNSLLVSWQPPRARITGYIIKYEKPGSPPREVVPRPRPGVTEATITGLEPGTEYTIYVIALKNNQKSEPLIGRKKT | soluble
15 | AKGDPHVLLTTSAGNIELELDKQKAPVSVQNFVDYVNSGFYNNTTFHRVIPGFMIQGGGFTEQMQQKKPNPPIKNEADNGLRNTRGTIAMARTADKDSATSQFFINVADNAFLDHGQRDFGYAVFGKVVKGMDVADKISQVPTHDVGPYQNVPSKPVVILSATVLP | soluble
16 | AKIGLFYGTQTGVTQTIAESIQQEFGGESIVDLNDIANADASDLNAYDYLIIGCPTWGVGELQSDWEGIYDDLDSVNFQGKKVAYFGAGDQVGYSDNFQDAMGILEEKISSLGSQTVGYWPIEGYDFNESKAVRNNQFVGLAIDEDNQPDLTKNRIKTWVSQLKSEFGL | soluble
17 | AKKIGIEQSLSDVEAALKEKGYDVVMMKSPADAQGCDCCVVTGLDNNVQGIADTVTQAPVITASGMTAEEICSEVESRIQ | not soluble
18 | ALCAICGDRATGKHYGASSCDGCKGFFRRSVRKNHMYSCRFSRQCVVDKDKRNQCRYCRLKKCFRAGMKKEAVQNERD | soluble
19 | AMADTIVAVELDSYPNTDIGDPNYPHIGIDIKSIRSKSTARWNMQTGKVGTVHISYNSVAKRLSAVVSYSGSSSTTVSYDVDLNNVLPEWVRVGLSATTGLYKETNTILSWSFTSKLKTNSIADANSLHFSFNQFSQNPKDLILQGDAFTDSDGNLQLTKVSSSGDPQGNSVGRALFYAPVHIWEKSAVVASFDATFTFLIKSPDREPADGITFFIANTDTSIPSGSGGRLLGLFPDAN | soluble
20 | ANGLITKIWGTAGWTFNHAVTFGYPLNPTSDDKRRYKNYFISLGDVLPCRLCRESYKKFITTGKTALTNEVLRNRHTLTKWFYDVHNAVNNKLEVDYGLSYEDVVNKYESFRAK | soluble
21 | AQELQTANEFTVHTDLSSISSTRAFLKEKHKAAKHIGVRADIPFDANQGIRLEAGFGRSKKNIINLETDENKLGKTKNVKLPTGVPENRIDLYTGYTYTQTLSDSLNFRVGAGLGFESSKDSIKTTKHTLHSSRQSWLAKVHADLLSQLGNGWYINPWSEVKFDLNSRYKLNTGVTNLKKDINQKTNGWGFGLGANIGKKLGESASIEAGPFYKQRTYKESGEFSVTTKSGDVSLTIPKTSIREYGLRVGIKF | soluble
22 | AQKPWEKDAWEIPRESLKLEKKLGAGQFGEVWMATYNKHTKVAVKTMKPGSMSVEAFLAEANVMKTLQHDKLVKLHAVVTKEPIYIITEFMAKGSLLDFLKSDEGSKQPLPKLIDFSAQIAEGMAFIEQRNYIHRDLRAANILVSASLVCKIADFGLARVIEDNEYTAREGAKFPIKWTAPEAINFGSFTIKSDVWSFGILLMEIVTYGRIPYPGMSNPEVIRALERGYRMPRPENCPEELYNIMMRCWKNRPEERPTFEYIQSVLDDFE | soluble
23 | AQRRAVAAAGGLARSCPAGQQALLAEGFARRLLRDVAATLHEGEYTSPLCEPLAYADPLAGLAAALAELMAWPGLLAVLQPVQAQPDAVAAAAGAGAPAAAGAGVGAGSGARQRLAQETADRARAEVLVLLQELVTWLDPCCDDSRGVAPQDAAAVSLAAFRSLVEHDPGAAAALDADTNIRWYLCNLTGDDAPPAAPPAECVAPQSDMLLDLARRLLAALPPLAAAAAPG | not soluble
24 | ASQIERNLARISAEKNRLDTILRGMGEGLMVSDAGGTVTLVNPAFLELFGLTQSVEGRQIIEIARFPELHETFRAVVSSRSEHVEEMTLPLGDEKQVLTHWVPLMEEDELRGVVAVFHDIS | not soluble
25 | ATALQCFCHLCTKDNFTCVTDGLCFVSVTETTDKVIHNSMCIAEIDLIPRDRPFVCAPSSKTGSVTTTYCCNQDHCNKIELPTTV | soluble
26 | ATCYCRTGRCATRESLSGVCEISGRLYRLCCR | soluble
27 | ATEAHPAGGRLVLRPVRKSDAGLFAMYAGDRRVAEGTRGIPHPLPPGAAEAFVNRSTAEARSEDVWVMDGSASGLSEVLGVISLKRMDRDQSEIAYWVAPAFWNAGFASEAVRALIEANPQGSRTIFAEVFQDNPQSARVLTNCGFEYIGDAEAFSVARNARVPTWTY | not soluble
